# Data reported in patent US20240317847A1 (Bayer, published 2024).
# Where two headings read alike, the source gives them in different places.
# T1: human IL-11 (human, UniProt P20809 22-199)
# T1 construct: Invigate recombinant protein; biotinylated when immobilized in the Di-complex ELISA; also called hIL11; hIL-11
# T1 sequence: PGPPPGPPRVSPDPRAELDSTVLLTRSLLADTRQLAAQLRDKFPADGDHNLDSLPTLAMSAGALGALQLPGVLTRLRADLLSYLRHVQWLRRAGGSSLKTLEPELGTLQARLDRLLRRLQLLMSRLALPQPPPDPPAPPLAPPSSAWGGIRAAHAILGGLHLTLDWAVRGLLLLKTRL
# T2: human IL-11 (Invigate, e.g., lot #C121021-19) (human, UniProt P20809 22-199)
# T2 construct: Bought protein; also called hIL-11; hIL11
# T2 sequence: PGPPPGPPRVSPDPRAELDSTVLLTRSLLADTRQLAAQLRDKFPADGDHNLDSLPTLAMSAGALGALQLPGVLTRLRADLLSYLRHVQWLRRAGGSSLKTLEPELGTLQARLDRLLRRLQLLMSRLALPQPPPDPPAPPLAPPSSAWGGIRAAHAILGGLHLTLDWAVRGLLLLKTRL
# T3: murine IL-11 (Invigate, e.g., lot #C210819-09) (mouse, UniProt P47873 22-199)
# T3 construct: Bought protein; biotinylated where captured on streptavidin plates; also called mIL-11; mIL11
# T3 sequence: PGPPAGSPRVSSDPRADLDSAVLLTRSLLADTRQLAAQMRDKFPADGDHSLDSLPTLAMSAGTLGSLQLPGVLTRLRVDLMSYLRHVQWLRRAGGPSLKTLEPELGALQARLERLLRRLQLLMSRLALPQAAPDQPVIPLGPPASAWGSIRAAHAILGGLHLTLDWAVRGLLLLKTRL
# T4: human IL2Ra (Peprotech, Germany, #200-02RC) (human, UniProt P01589 22-240)
# T4 construct: Coated on the ELISA plate; also called hIL2Ra; IL-2 receptor alpha
# T4 sequence (looked up): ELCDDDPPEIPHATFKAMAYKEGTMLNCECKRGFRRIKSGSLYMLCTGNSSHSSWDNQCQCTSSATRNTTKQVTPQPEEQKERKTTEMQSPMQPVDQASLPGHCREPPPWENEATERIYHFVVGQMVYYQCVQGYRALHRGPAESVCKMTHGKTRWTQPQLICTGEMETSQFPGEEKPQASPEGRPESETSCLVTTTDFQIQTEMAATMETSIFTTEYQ
# What was measured:
# human IL-11 [1] = biological target: T1, human IL-11; test: Tri-complex ELISA, hIL-11 + mIL-11Ra-Fc + hgp130-Fc, inhibition of complex formation
# Procedure: In the Tri-complex ELISA format IL-11 antibodies are tested for their ability to inhibit the formation of a complex consisting of murine or human gp130-Fc fusion protein, with murine or human IL-11, and a murine IL11RA-Fc fusion protein. The assay format was adapted according to FIG. 18 (a, b), depending on whether murine or human IL-11 IgG antibodies were tested.
# Bispecific antibodies were subjected to the experimental assay procedure described in Example 19 and IC50 [M], respectively efficacy (%) were calculated accordingly.
# [2] = biological target: T2, human IL-11 (Invigate, e.g., lot …); test: SPR, Biacore T200, 25 C; antibody captured via anti-mouse Fc, IL-11 as analyte, 1:1 Langmuir fit
# Procedure: (§1) Antibodies were captured via anti-mouse Fc IgGs (“Mouse antibody capture kit, Order No. BR100383, Cytiva) covalently amine coupled to a Series S CM5 sensor chip (Cytiva). The amine coupling was carried out according to the manufacturer's instructions using 1-ethyl-3-(3-dimethylaminopropyl) carbodiimide hydrochloride (EDC), N-hydroxysuccinimide (NHS) and ethanolamine HCl, pH 8.5 (“Amine Coupling Kit” BR-1000-50, Cytiva.). Human IL-11 (Invigate, e.g., lot #C121021-19), and murine IL-11 (Invigate, e.g., lot #C210819-09) were used as analytes. […] Based on that experiment an IL-11 concentration range was chosen to optimally determine kinetics and affinity of anti-IL-11 antibodies in multicycle kinetics mode. The sensor surface was regenerated with glycine pH 1.7 after each antigen injection. Obtained sensorgrams were double referenced (subtraction of reference flow cell signal and buffer injection) and were fitted to a 1:1 Langmuir binding model to derive kinetic data using the Biacore T200 Evaluation software or the Biacore Insight software.
# [3] = biological target: T3, murine IL-11 (Invigate, e.g., lot …); test: as above
# Procedure: as §1
# [4] = biological target: T2, human IL-11 (Invigate, e.g., lot …); test: cell-based or functional assay
# [5] = biological target: T3, murine IL-11 (Invigate, e.g., lot …); test: cell-based or functional assay
# [6] = biological target: T4, human IL2Ra (Peprotech, Germany, …); test: direct binding ELISA on coated IL2Ra, antibody at 3.3E-7 [M]
# Procedure: IL2RA (Peprotech, Germany, #200-02RC) was coated at 1 or 0 μg/ml (buffer only control) in 30 μl coating buffer (Candor, #113500) per well on a 384 well microtiter plate (Maxisorb, Nunc, #460518) over night at 4-8° C. After two washes with 50 μl/well washing buffer (PBS+0.05% Tween, pH 7.4), the plates were incubated for two hours at room temperature with 50 μl/well SmartBlock (Candor, #113500). After blocking, the plates were washed three times with washing buffer. […] After three additional washes, 30 μl anti mouse IgG HRP-conjugated antibody (Biotechne, HAF007), diluted 1:1000 in PBS+0.05% Tween (pH 7.4), were added per well and incubated for one hour. After three additional washes, a mixture of Amplex red (Invitrogen, #12222, 10 mM stock solution in DMSO) 1:1000 diluted in PBS and H2O2 (30%, Merck, #107209)) diluted 1:10000 in PBS were added as substrate with 30 μl per well and incubated for 20 min in the dark. Relative fluorescence was measured with a microtiter plate reader at 535/590 nm.
# human IL-11 [7] = biological target: T1, human IL-11; test: Tri-complex ELISA, hIL-11 + mIL-11Ra-Fc + hgp130-Fc, inhibition of complex formation; remark: listed apart in the source
Binder,Efficacy (%) (human IL-11 [1]),IC50 (human IL-11 [1]) [nM],Efficacy (%) (human IL-11 [7]),IC50 (human IL-11 [7]) [nM],other results
"TPP-29603 (bispecific antibody, IgG1, scFv-kih-mIgG1; bispecific comprising CDRs of TPP-29528 and TPP-29519) chain 1: QVQLVESGGGVVQPGRSLRLSCAASGFTFSHYDMHWVRQAPGKGLEWVAVISYHGSVKFYADSVKGRFTISRDNSKNTLYLQMNSLRAEDTAVYYCARTPGFHFDYWGQGTLVTVSSGGGGSGGGGSGGGGSQSVLTQPPSASGTPGQRVTISCSGSSSNIGSNYVSWYQQLPGTAPKLLIYYDDLRPSGVPDRFSGSKSGTSASLAISGLRSEDEADYYCSAWDDSLSGVVFGGGTKLTVLGGGGSGGGGSGGGGSGVECPPCPAPPVAGPSVFIFPPKPKDVLTITLTPKVTCVVVDISKDDPEVQFSWFVDDVEVHTAQTQPREEQFNSTFRSVSELPIMHQDWLNGKEFKCRVNSAAFPAPIEKTISKTKGRPKAPQVYTIPPCKEQMAKDKVSLWCMITDFFPEDITVEWQWNGQPAENYKNTQPIMDTDGSYFVYSKLNVQKSNWEAGNTFTCSVLHEGLHNHHTEKSLSHSPGK chain 2: EVQLLESGGGLVQPGGSLRLSCAASGFTFSSYGMHWVRQAPGKGLEWVAVISYDGSYKYYADSVKGRFTISRDNSKNTLYLQMNSLRAEDTAVYYCAAGVPDYWGQGTLVTVSSGGGGSGGGGSGGGGSQSVLTQPPSASGTPGQRVTISCSGSSSNIGSDYDVHWYQQLPGTAPKLLIYSNEERPSGVPDRFSGSKSGTSASLAISGLRSEDEADYYCSAWDSSLSGPVFGGGTKLTVLGGGGSGGGGSGGGGSGVECPPCPAPPVAGPSVFIFPPKPKDVLTITLTPKVTCVVVDISKDDPEVQFSWFVDDVEVHTAQTQPREEQFNSTFRSVSELPIMHQDWLNGKEFKCRVNSAAFPAPIEKTISKTKGRPKAPQVCTIPPPKEQMAKDKVSLSCAITDFFPEDITVEWQWNGQPAENYKNTQPIMDTDGSYFVVSKLNVQKSNWEAGNTFTCSVLHEGLHNHHTEKSLSHSPGK",98.5,0.696,–,–,–
"TPP-18087 (antibody, mouse IgG1, V domains shown, mIgG1, Lambda) VH: EVQLLESGGGLVQPGGSLRLSCAASGFTFSHYDMNWLRQAPGKGLEWVGVISYDGSNKFYADFVKGRFTISRDNSKNTLYLQMNSLRAEDTAVYYCARTPGSHFDYWGQGTLVTVSS VL: QSVLTQPPSASGTPGQRVTISCSGSSSNIGNNAVNWYQQLPGTAPKLLIYYDDLLPSGVPDRFSGSKSGTSASLAISGLRSEDEADYYCSAWDDSLNGVVFGGGTKLTVLG",–,–,–,–,"Kd [2]: 53 nM; Kd [3]: 42 nM; Efficacy (%), Stat3 reporter gene assay, human IL11RA, 0.78 nM hIL-11 [4]: 51.5%; IC50 [M], Stat3 reporter gene assay, HEK 293F transfected with human IL11RA, 0.78 nM hIL-11 [4]: 1.07e-07 M; Efficacy (%), Stat3 reporter gene assay, mouse Il11ra, 3.13 nM mIL-11 [5]: 49%; IC50 [M], Stat3 reporter gene assay, HEK 293F transfected with mouse Il11ra, 3.13 nM mIL-11 [5]: 3.31e-07 M; ratio of the signals versus the isotype control TPP-10159 [6]: 2.4"
"TPP-29519 (antibody, mouse IgG1, mIgG1, Lambda) heavy: QVQLVESGGGVVQPGRSLRLSCAASGFTFSHYDMHWVRQAPGKGLEWVAVISYHGSVKFYADSVKGRFTISRDNSKNTLYLQMNSLRAEDTAVYYCARTPGFHFDYWGQGTLVTVSSAKTTPPSVYPLAPGSAAQTNSMVTLGCLVKGYFPEPVTVTWNSGSLSSGVHTFPAVLQSDLYTLSSSVTVPSSTWPSETVTCNVAHPASSTKVDKKIVPRDCGCKPCICTVPEVSSVFIFPPKPKDVLTITLTPKVTCVVVDISKDDPEVQFSWFVDDVEVHTAQTQPREEQFNSTFRSVSELPIMHQDWLNGKEFKCRVNSAAFPAPIEKTISKTKGRPKAPQVYTIPPPKEQMAKDKVSLTCMITDFFPEDITVEWQWNGQPAENYKNTQPIMDTDGSYFVYSKLNVQKSNWEAGNTFTCSVLHEGLHNHHTEKSLSHSPGK light: QSVLTQPPSASGTPGQRVTISCSGSSSNIGSNYVSWYQQLPGTAPKLLIYYDDLRPSGVPDRFSGSKSGTSASLAISGLRSEDEADYYCSAWDDSLSGVVFGGGTKLTVLGQPKSSPSVTLFPPSSEELETNKATLVCTITDFYPGVVTVDWKVDGTPVTQGMETTQPSKQSNNKYMASSYLTLTARAWERHSSYSCQVTHEGHTVEKSLSRADCS",–,–,81.3,2.4,–
"TPP-29697 (bispecific antibody, IgG1, scFv-kih-hIgG1 with Fc-silencing mutations; bispecific comprising CDRs of TPP-29528 and TPP-29519) chain 1: QVQLVESGGGVVQPGRSLRLSCAASGFTFSHYDMHWVRQAPGKGLEWVAVISYHGSVKFYADSVKGRFTISRDNSKNTLYLQMNSLRAEDTAVYYCARTPGFHFDYWGQGTLVTVSSGGGGSGGGGSGGGGSQSVLTQPPSASGTPGQRVTISCSGSSSNIGSNYVSWYQQLPGTAPKLLIYYDDLRPSGVPDRFSGSKSGTSASLAISGLRSEDEADYYCSAWDDSLSGVVFGGGTKLTVLGGGGSGGGGSGGGGSGVECPPCPAPPVAGPSVFLFPPKPKDTLMISRTPEVTCVVVGVSHEDPEVKFNWYVDGVEVHNAKTKPREEQYNSTYRVVSVLTVLHQDWLNGKEYKCKVSNKQLPSPIEKTISKAKGQPREPQVYTLPPCRDELTKNQVSLWCLVKGFYPSDIAVEWESNGQPENNYKTTPPVLDSDGSFFLYSKLTVDKSRWQQGNVFSCSVMHEALHNHYTQKSLSLSPGK chain 2: EVQLLESGGGLVQPGGSLRLSCAASGFTFSSYGMHWVRQAPGKGLEWVAVISYDGSYKYYADSVKGRFTISRDNSKNTLYLQMNSLRAEDTAVYYCAAGVPDYWGQGTLVTVSSGGGGSGGGGSGGGGSQSVLTQPPSASGTPGQRVTISCSGSSSNIGSDYDVHWYQQLPGTAPKLLIYSNEERPSGVPDRFSGSKSGTSASLAISGLRSEDEADYYCSAWDSSLSGPVFGGGTKLTVLGGGGSGGGGSGGGGSGVECPPCPAPPVAGPSVFLFPPKPKDTLMISRTPEVTCVVVGVSHEDPEVKFNWYVDGVEVHNAKTKPREEQYNSTYRVVSVLTVLHQDWLNGKEYKCKVSNKQLPSPIEKTISKAKGQPREPQVCTLPPSRDELTKNQVSLSCAVKGFYPSDIAVEWESNGQPENNYKTTPPVLDSDGSFFLVSKLTVDKSRWQQGNVFSCSVMHEALHNHYTQKSLSLSPGK",104,1.6,–,–,–
"TPP-29528 (antibody, mouse IgG1, mIgG1, Lambda) heavy: EVQLLESGGGLVQPGGSLRLSCAASGFTFSSYGMHWVRQAPGKGLEWVAVISYDGSYKYYADSVKGRFTISRDNSKNTLYLQMNSLRAEDTAVYYCAAGVPDYWGQGTLVTVSSAKTTPPSVYPLAPGSAAQTNSMVTLGCLVKGYFPEPVTVTWNSGSLSSGVHTFPAVLQSDLYTLSSSVTVPSSTWPSETVTCNVAHPASSTKVDKKIVPRDCGCKPCICTVPEVSSVFIFPPKPKDVLTITLTPKVTCVVVDISKDDPEVQFSWFVDDVEVHTAQTQPREEQFNSTFRSVSELPIMHQDWLNGKEFKCRVNSAAFPAPIEKTISKTKGRPKAPQVYTIPPPKEQMAKDKVSLTCMITDFFPEDITVEWQWNGQPAENYKNTQPIMDTDGSYFVYSKLNVQKSNWEAGNTFTCSVLHEGLHNHHTEKSLSHSPGK light: QSVLTQPPSASGTPGQRVTISCSGSSSNIGSDYDVHWYQQLPGTAPKLLIYSNEERPSGVPDRFSGSKSGTSASLAISGLRSEDEADYYCSAWDSSLSGPVFGGGTKLTVLGQPKSSPSVTLFPPSSEELETNKATLVCTITDFYPGVVTVDWKVDGTPVTQGMETTQPSKQSNNKYMASSYLTLTARAWERHSSYSCQVTHEGHTVEKSLSRADCS",–,–,94.7,1,–
